These results are taken from IntAct's records for PubMed 29892012.

B1: Protein SSX5 (Homo sapiens), O60225 (parent)
chain: MNGDDAFVRRPRVGSQIPEKMQKAFDDIAKYFSEKEWEKMKASEKIIYVYMKRKYEAMTKLGFKATLPPFMRNKRVADFQGNDFDNDPNRGNQVEHPQMTFGRLQGIFPKITPEKPAEEGNDSKGVPEASGPQNNGKQLRPSGKLNTSEKVNKTSGPKRGKHAWTHRVRERKQLVIYEEISDPQEDDE
partner: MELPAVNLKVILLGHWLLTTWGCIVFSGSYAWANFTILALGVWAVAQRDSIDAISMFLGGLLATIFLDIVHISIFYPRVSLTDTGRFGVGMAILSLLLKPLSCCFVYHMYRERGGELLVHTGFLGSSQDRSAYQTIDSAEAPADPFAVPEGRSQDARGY
B2: Melanoma-associated antigen 8 (Homo sapiens), P43361 (parent)
chain: MLLGQKSQRYKAEEGLQAQGEAPGLMDVQIPTAEEQKAASSSSTLIMGTLEEVTDSGSPSPPQSPEGASSSLTVTDSTLWSQSDEGSSSNEEEGPSTSPDPAHLESLFREALDEKVAELVRFLLRKYQIKEPVTKAEMLESVIKNYKNHFPDIFSKASECMQVIFGIDVKEVDPAGHSYILVTCLGLSYDGLLGDDQSTPKTGLLIIVLGMILMEGSRAPEEAIWEALSVMGLYDGREHSVYWKLRKLLTQEWVQENYLEYRQAPGSDPVRYEFLWGPRALAETSYVKVLEHVVRVNARVRISYPSLHEEALGEEKGV
partner: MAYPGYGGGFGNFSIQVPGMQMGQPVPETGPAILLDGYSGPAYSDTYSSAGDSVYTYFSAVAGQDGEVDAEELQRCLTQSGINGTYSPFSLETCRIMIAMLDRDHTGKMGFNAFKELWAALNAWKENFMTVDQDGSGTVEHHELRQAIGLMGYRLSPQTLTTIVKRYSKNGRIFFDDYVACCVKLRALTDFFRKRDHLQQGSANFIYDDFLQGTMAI
B3: Retinoic acid receptor alpha (Homo sapiens), P10276 (parent)
chain: MASNSSSCPTPGGGHLNGYPVPPYAFFFPPMLGGLSPPGALTTLQHQLPVSGYSTPSPATIETQSSSSEEIVPSPPSPPPLPRIYKPCFVCQDKSSGYHYGVSACEGCKGFFRRSIQKNMVYTCHRDKNCIINKVTRNRCQYCRLQKCFEVGMSKESVRNDRNKKKKEVPKPECSESYTLTPEVGELIEKVRKAHQETFPALCQLGKYTTNNSSEQRVSLDIDLWDKFSELSTKCIIKTVEFAKQLPGFTTLTIADQITLLKAACLDILILRICTRYTPEQDTMTFSDGLTLNRTQMHNAGFGPLTDLVFAFANQLLPLEMDDAETGLLSAICLICGDRQDLEQPDRVDMLQEPLLEALKVYVRKRRPSRPHMFPKMLMKITDLRSISAKGAERVITLKMEIPGSMPPLIQEMLENSEGLDTLSGQPGGGGRDGGGLAPPPGSCSPSLSPSSNRSSPATHSP
partner: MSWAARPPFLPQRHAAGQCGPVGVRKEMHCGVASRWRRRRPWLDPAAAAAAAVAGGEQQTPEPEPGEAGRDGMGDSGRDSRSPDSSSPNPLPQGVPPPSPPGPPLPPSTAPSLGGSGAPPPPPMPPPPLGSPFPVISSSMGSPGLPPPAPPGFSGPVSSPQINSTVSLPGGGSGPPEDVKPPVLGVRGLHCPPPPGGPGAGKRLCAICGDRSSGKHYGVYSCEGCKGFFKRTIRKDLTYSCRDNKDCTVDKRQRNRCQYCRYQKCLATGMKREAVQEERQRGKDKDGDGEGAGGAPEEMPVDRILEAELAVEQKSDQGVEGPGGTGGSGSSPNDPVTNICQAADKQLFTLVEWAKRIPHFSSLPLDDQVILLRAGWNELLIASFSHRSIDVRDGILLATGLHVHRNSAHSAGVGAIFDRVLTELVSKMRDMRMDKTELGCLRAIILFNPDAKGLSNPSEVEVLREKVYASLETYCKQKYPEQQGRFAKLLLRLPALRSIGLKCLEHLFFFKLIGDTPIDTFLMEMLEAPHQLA
B4: Melanoma-associated antigen 8 (Homo sapiens), P43361 (parent)
chain: B2 chain
B5: Peripheral plasma membrane protein CASK (Homo sapiens), O14936 (parent)
chain: MADDDVLFEDVYELCEVIGKGPFSVVRRCINRETGQQFAVKIVDVAKFTSSPGLSTEDLKREASICHMLKHPHIVELLETYSSDGMLYMVFEFMDGADLCFEIVKRADAGFVYSEAVASHYMRQILEALRYCHDNNIIHRDVKPHCVLLASKENSAPVKLGGFGVAIQLGESGLVAGGRVGTPHFMAPEVVKREPYGKPVDVWGCGVILFILLSGCLPFYGTKERLFEGIIKGKYKMNPRQWSHISESAKDLVRRMLMLDPAERITVYEALNHPWLKERDRYAYKIHLPETVEQLRKFNARRKLKGAVLAAVSSHKFNSFYGDPPEELPDFSEDPTSSGLLAAERAVSQVLDSLEEIHALTDCSEKDLDFLHSVFQDQHLHTLLDLYDKINTKSSPQIRNPPSDAVQRAKEVLEEISCYPENNDAKELKRILTQPHFMALLQTHDVVAHEVYSDEALRVTPPPTSPYLNGDSPESANGDMDMENVTRVRLVQFQKNTDEPMGITLKMNELNHCIVARIMHGGMIHRQGTLHVGDEIREINGISVANQTVEQLQKMLREMRGSITFKIVPSYRTQSSSCERDSPSTSRQSPANGHSSTNNSVSDLPSTTQPKGRQIYVRAQFEYDPAKDDLIPCKEAGIRFRVGDIIQIISKDDHNWWQGKLENSKNGTAGLIPSPELQEWRVACIAMEKTKQEQQASCTWFGKKKKQYKDKYLAKHNAVFDQLDLVTYEEVVKLPAFKRKTLVLLGAHGVGRRHIKNTLITKHPDRFAYPIPHTTRPPKKDEENGKNYYFVSHDQMMQDISNNEYLEYGSHEDAMYGTKLETIRKIHEQGLIAILDVEPQALKVLRTAEFAPFVVFIAAPTITPGLNEDESLQRLQKESDILQRTYAHYFDLTIINNEIDETIRHLEEAVELVCTAPQWVPVSWVY
partner: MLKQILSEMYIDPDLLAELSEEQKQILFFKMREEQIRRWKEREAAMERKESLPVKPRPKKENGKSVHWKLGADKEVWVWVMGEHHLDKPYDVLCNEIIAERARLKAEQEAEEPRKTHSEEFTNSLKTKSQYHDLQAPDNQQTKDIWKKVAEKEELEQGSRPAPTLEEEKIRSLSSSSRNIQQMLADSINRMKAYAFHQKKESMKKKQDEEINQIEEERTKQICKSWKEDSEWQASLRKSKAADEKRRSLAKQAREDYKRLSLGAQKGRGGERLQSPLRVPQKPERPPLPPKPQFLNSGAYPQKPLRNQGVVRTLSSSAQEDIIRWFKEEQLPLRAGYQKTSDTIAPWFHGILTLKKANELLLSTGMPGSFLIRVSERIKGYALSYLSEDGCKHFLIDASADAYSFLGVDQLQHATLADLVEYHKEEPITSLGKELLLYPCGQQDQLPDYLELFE

The variants in the first test derive from B1. The note with it: with atrap_human AGTRAP.
Take MNGDDAFVRRPRVGSQIPEKMQKAFDDIAKYFSEKEWEKMKASEKIIYVYMKRRYEAMTKLGFKATLPPFMRNKRVADFQGNDFDNDPNRGNQVEHPQMTFGRLQGIFPKITPEKPAEEGNDSKGVPEASGPQNNGKQLRPSGKLNTSEKVNKTSGPKRGKHAWTHRVRERKQLVIYEEISDPQEDDE [K54R]: the “effect of a mutation on the interaction” value is “disrupting interaction strength”.

Variants of B2 are the subject of a further test. Particulars: with gran_human GCA.
On to MLLGQKSQRYKAEEGLQAQGEAPGLMDVQIPTAEEQKAASSSSTLIMGTLEEVTDSGSPSPPQSPEGASSSLTVTDSTLWSQSDEGSSSNEEEGPSTSPDPAHLESLFREALDEKVAELVRFLLRKYQIKEPVTKAEMLESVIKNYKNHFPDIFSKASECMQVIFGIDVKEVDPAGHSYILVTCLGLSYDGLLGDDQSTPKTGLLIIVLGMILMEGSCAPEEAIWEALSVMGLYDGREHSVYWKLRKLLTQEWVQENYLEYRQAPGSDPVRYEFLWGPRALAETSYVKVLEHVVRVNARVRISYPSLHEEALGEEKGV [R218C], for which the “effect of a mutation on the interaction” value is given as “with no effect”.

In the next test the parent is B3. Particulars: with rxrb_human RXRB.
Consider MASNSSSCPTPGGGHLNGYPVPPYAFFFPPMLGGLSPPGALTTLQHQLPVSGYSTPSPATIETQSSSSEEIVPSPPSPPPLPHIYKPCFVCQDKSSGYHYGVSACEGCKGFFRRSIQKNMVYTCHRDKNCIINKVTRNRCQYCRLQKCFEVGMSKESVRNDRNKKKKEVPKPECSESYTLTPEVGELIEKVRKAHQETFPALCQLGKYTTNNSSEQRVSLDIDLWDKFSELSTKCIIKTVEFAKQLPGFTTLTIADQITLLKAACLDILILRICTRYTPEQDTMTFSDGLTLNRTQMHNAGFGPLTDLVFAFANQLLPLEMDDAETGLLSAICLICGDRQDLEQPDRVDMLQEPLLEALKVYVRKRRPSRPHMFPKMLMKITDLRSISAKGAERVITLKMEIPGSMPPLIQEMLENSEGLDTLSGQPGGGGRDGGGLAPPPGSCSPSLSPSSNRSSPATHSP [R83H], for which the “effect of a mutation on the interaction” value is recorded as “with no effect”.
Same read-out and setting: the value for MASNSSSCPTPGGGHLNGYPVPPYAFFFPPMLGGLSPPGALTTLQHQLPVSGYSTPSPATIETQSSSSEEIVPSPPSPPPLPRIYKPCFVCQDKSSGYHYGVSACEGCKGFFRRSIQKNMVYTCHRDKNCIINKVTRNRCQYCRLQKCFEVGMSKESVRNDRNKKKKEVPKPECSESYTLTPEVGELIEKVRKAHQETFPALCQLGKYTTNNSSEQRVSLDIDLWDKFSELSTKCIIKTVEFAKQLPGFTTLTIADQITLLKAACLDILILRICTRYTPEQDTMTFSDGLTLNRTQMHNAGFGPLTDLVFAFANQLLPLEMDDAETGLLSAICLICGDRQDLEQPDRVDMLQEPLLEALKVYVRKRRPSRPHMFLKMLMKITDLRSISAKGAERVITLKMEIPGSMPPLIQEMLENSEGLDTLSGQPGGGGRDGGGLAPPPGSCSPSLSPSSNRSSPATHSP [P375L] was “disrupting interaction strength”.

In another test the parent is B4. Particulars: with bex5_human BEX5, Q5H9J7.
Sequence of bex5_human BEX5, Q5H9J7 (Q5H9J7 whole entry): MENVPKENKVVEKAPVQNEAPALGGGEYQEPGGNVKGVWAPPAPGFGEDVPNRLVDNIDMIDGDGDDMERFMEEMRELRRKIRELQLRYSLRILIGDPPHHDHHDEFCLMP
On to MLLGQKSQRYKAEEGLQAQGEAPGLMDVQIPTAEEQKAASSSSTLIMGTLEEVTDSGSPSPPQSPEGASSSLTVTDSTLWSQSDEGSSSNEEEGPSTSPDPAHLESLFREALDEKVAELVRFLLRKYQIKEPVTKAEMLESVIKNYKNHFPDIFSKASECMQVIFGIDVKEVDPAGHSYILVTCLGLSYDGLLGDDQSTPKTGLLIIVLGMILMEGSCAPEEAIWEALSVMGLYDGREHSVYWKLRKLLTQEWVQENYLEYRQAPGSDPVRYEFLWGPRALAETSYVKVLEHVVRVNARVRISYPSLHEEALGEEKGV [R218C], for which the “effect of a mutation on the interaction” value is given as “with no effect”.

In another test the parent is B5. Particulars: with sh24a_human SH2D4A.
Consider G197R, for which the “effect of a mutation on the interaction” value is recorded as “with no effect”.
